For one substance, stoichiometry N and Kd results are on record in PMC8472933.

The target of test [1] is Menangle virus P protein C-terminal region, P209-388 (coiled-coil, linker and binding domain) (Menangle virus). Put plainly: SEC-MALLS.
The target is the same in test [2]. Put plainly: AUC.

Broadly, the stoichiometry N is a count of units in the complex or per binding partner. What is called Kd is the free concentration of one partner at which half of the binding sites on the other are occupied at equilibrium, for simple one-to-one binding.

“Menangle virus P protein C-terminal region, P209-388 (coiled-coil, linker and binding domain) (domain or fragment)” returned a stoichiometry N in test [1] of 4. In test [2], this substance registered a Kd of 58 nM and a stoichiometry N of 4.
